B1: Progranulin (Homo sapiens), P28799 (parent)
chain: MWTLVSWVALTAGLVAGTRCPDGQFCPVACCLDPGGASYSCCRPLLDKWPTTLSRHLGGPCQVDAHCSAGHSCIFTVSGTSSCCPFPEAVACGDGHHCCPRGFHCSADGRSCFQRSGNNSVGAIQCPDSQFECPDFSTCCVMVDGSWGCCPMPQASCCEDRVHCCPHGAFCDLVHTRCITPTGTHPLAKKLPAQRTNRAVALSSSVMCPDARSRCPDGSTCCELPSGKYGCCPMPNATCCSDHLHCCPQDTVCDLIQSKCLSKENATTDLLTKLPAHTVGDVKCDMEVSCPDGYTCCRLQSGAWGCCPFTQAVCCEDHIHCCPAGFTCDTQKGTCEQGPHQVPWMEKAPAHLSLPDPQALKRDVPCDNVSSCPSSDTCCQLTSGEWGCCPIPEAVCCSDHQHCCPQGYTCVAEGQCQRGSEIVAGLEKMPARRASLSHPRDIGCDQHTSCPVGQTCCPSLGGSWACCQLPHAVCCEDRQHCCPAGYTCNVKARSCEKEVVSAQPATFLARSPHVGVKDVECGEGHFCHDNQTCCRDNRQGWACCPYRQGVCCADRRHCCPAGFRCAARGTKCLRREAPRWDAPLRDPALRQLL
partner: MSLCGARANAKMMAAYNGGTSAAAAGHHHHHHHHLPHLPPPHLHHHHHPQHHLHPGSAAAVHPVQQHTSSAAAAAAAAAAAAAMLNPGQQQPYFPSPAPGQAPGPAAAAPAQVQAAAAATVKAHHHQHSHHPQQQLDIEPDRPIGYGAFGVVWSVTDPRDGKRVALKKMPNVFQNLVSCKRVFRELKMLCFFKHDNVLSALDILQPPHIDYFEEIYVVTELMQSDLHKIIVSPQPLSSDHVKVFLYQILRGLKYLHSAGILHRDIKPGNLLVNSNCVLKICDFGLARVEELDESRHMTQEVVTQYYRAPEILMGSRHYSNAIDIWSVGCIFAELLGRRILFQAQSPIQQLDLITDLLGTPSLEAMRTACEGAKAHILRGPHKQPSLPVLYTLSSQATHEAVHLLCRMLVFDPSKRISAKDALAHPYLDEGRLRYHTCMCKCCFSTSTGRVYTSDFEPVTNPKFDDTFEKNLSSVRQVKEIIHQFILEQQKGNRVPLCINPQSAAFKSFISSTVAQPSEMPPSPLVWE
B2: DNA mismatch repair protein Mlh1 (Homo sapiens), P40692 (parent)
chain: MSFVAGVIRRLDETVVNRIAAGEVIQRPANAIKEMIENCLDAKSTSIQVIVKEGGLKLIQIQDNGTGIRKEDLDIVCERFTTSKLQSFEDLASISTYGFRGEALASISHVAHVTITTKTADGKCAYRASYSDGKLKAPPKPCAGNQGTQITVEDLFYNIATRRKALKNPSEEYGKILEVVGRYSVHNAGISFSVKKQGETVADVRTLPNASTVDNIRSIFGNAVSRELIEIGCEDKTLAFKMNGYISNANYSVKKCIFLLFINHRLVESTSLRKAIETVYAAYLPKNTHPFLYLSLEISPQNVDVNVHPTKHEVHFLHEESILERVQQHIESKLLGSNSSRMYFTQTLLPGLAGPSGEMVKSTTSLTSSSTSGSSDKVYAHQMVRTDSREQKLDAFLQPLSKPLSSQPQAIVTEDKTDISSGRARQQDEEMLELPAPAEVAAKNQSLEGDTTKGTSEMSEKRGPTSSNPRKRHREDSDVEMVEDDSRKEMTAACTPRRRIINLTSVLSLQEEINEQGHEVLREMLHNHSFVGCVNPQWALAQHQTKLYLLNTTKLSEELFYQILIYDFANFGVLRLSEPAPLFDLAMLALDSPESGWTEEDGPKEGLAEYIVEFLKKKAEMLADYFSLEIDEEGNLIGLPLLIDNYVPPLEGLPIFILRLATEVNWDEEKECFESLSKECAMFYSIRKQYISEESTLSGQQSEVPGSIPNSWKWTVEHIVYKALRSHILPPKHFTEDGNILQLANLPDLYKVFERC
partner: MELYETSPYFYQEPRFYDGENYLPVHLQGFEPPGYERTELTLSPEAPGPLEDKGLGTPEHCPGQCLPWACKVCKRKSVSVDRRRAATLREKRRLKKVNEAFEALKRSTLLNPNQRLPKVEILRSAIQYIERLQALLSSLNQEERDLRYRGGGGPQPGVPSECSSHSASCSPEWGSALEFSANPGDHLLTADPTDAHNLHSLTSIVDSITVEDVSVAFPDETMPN
B3: U4/U6 small nuclear ribonucleoprotein Prp31 (Homo sapiens), Q8WWY3 (parent)
chain: MSLADELLADLEEAAEEEEGGSYGEEEEEPAIEDVQEETQLDLSGDSVKTIAKLWDSKMFAEIMMKIEEYISKQAKASEVMGPVEAAPEYRVIVDANNLTVEIENELNIIHKFIRDKYSKRFPELESLVPNALDYIRTVKELGNSLDKCKNNENLQQILTNATIMVVSVTASTTQGQQLSEEELERLEEACDMALELNASKHRIYEYVESRMSFIAPNLSIIIGASTAAKIMGVAGGLTNLSKMPACNIMLLGAQRKTLSGFSSTSVLPHTGYIYHSDIVQSLPPDLRRKAARLVAAKCTLAARVDSFHESTEGKVGYELKDEIERKFDKWQEPPPVKQVKPLPAPLDGQRKKRGGRRYRKMKERLGLTEIRKQANRMSFGEIEEDAYQEDLGFSLGHLGKSGSGRVRQTQVNEATKARISKTLQRTLQKQSVVYGGKSTIRDRSSGTASSVAFTPLQGLEIVNPQAAEKKVAEANQKYFSSMAEFLKVKGEKSGLMST
partner: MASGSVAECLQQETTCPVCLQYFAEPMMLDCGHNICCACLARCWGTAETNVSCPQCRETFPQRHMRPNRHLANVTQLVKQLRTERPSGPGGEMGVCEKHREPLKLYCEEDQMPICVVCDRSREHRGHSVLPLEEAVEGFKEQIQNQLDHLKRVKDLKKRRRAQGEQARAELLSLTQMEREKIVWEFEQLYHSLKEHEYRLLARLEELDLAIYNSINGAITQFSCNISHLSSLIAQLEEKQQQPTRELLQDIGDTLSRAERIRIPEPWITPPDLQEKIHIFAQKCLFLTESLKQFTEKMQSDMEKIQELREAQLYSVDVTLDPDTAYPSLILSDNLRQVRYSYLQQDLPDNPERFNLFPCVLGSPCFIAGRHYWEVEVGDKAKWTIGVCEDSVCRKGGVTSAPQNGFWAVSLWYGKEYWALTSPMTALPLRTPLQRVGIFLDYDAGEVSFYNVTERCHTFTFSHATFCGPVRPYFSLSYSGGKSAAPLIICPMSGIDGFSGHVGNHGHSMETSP
B4: Beta-crystallin A4 (Homo sapiens), P53673 (parent)
chain: MTLQCTKSAGPWKMVVWDEDGFQGRRHEFTAECPSVLELGFETVRSLKVLSGAWVGFEHAGFQGQQYILERGEYPSWDAWGGNTAYPAERLTSFRPAACANHRDSRLTIFEQENFLGKKGELSDDYPSLQAMGWEGNEVGSFHVHSGAWVCSQFPGYRGFQYVLECDHHSGDYKHFREWGSHAPTFQVQSIRRIQQ
partner: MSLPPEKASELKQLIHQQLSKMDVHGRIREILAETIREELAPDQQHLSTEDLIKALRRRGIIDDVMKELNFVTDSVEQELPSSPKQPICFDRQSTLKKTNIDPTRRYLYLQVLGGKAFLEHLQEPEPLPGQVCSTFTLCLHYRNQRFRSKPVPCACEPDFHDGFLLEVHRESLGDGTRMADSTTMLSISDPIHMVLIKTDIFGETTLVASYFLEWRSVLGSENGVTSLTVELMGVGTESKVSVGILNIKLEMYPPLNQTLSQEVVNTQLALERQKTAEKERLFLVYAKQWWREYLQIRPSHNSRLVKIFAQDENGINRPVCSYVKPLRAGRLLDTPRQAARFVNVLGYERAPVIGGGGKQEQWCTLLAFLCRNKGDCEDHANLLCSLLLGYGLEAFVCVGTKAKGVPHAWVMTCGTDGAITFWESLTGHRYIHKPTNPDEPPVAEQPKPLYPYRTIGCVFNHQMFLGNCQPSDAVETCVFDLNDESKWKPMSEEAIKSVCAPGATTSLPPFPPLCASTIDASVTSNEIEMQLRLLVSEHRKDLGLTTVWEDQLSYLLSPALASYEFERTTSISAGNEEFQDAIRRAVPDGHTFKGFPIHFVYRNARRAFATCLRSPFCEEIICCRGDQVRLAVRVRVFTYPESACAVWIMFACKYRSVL
B5: U4/U6 small nuclear ribonucleoprotein Prp31 (Homo sapiens), Q8WWY3 (parent)
chain: B3 chain
partner: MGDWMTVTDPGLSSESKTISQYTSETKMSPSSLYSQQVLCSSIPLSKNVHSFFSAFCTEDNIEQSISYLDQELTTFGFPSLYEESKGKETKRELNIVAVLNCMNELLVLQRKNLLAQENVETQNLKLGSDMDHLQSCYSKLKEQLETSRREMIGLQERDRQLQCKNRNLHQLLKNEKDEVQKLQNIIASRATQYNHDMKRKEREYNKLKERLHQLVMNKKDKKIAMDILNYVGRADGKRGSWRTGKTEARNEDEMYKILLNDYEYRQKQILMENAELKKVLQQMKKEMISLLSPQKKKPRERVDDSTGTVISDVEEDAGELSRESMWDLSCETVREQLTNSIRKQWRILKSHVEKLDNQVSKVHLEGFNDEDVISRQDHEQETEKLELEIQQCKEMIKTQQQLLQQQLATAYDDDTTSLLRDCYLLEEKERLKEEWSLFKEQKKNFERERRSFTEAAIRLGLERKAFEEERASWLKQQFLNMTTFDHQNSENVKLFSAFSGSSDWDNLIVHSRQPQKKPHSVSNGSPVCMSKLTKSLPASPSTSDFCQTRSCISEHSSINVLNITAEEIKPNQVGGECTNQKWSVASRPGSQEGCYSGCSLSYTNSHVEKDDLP
B6: Myozenin-2 (Homo sapiens), Q9NPC6 (parent)
chain: MLSHNTMMKQRKQQATAIMKEVHGNDVDGMDLGKKVSIPRDIMLEELSHLSNRGARLFKMRQRRSDKYTFENFQYQSRAQINHSIAMQNGKVDGSNLEGGSQQAPLTPPNTPDPRSPPNPDNIAPGYSGPLKEIPPEKFNTTAVPKYYQSPWEQAISNDPELLEALYPKLFKPEGKAELPDYRSFNRVATPFGGFEKASRMVKFKVPDFELLLLTDPRFMSFVNPLSGRRSFNRTPKGWISENIPIVITTEPTDDTTVPESEDL

In the first assay the parent is B1. The note with it: with nlk_human NLK.
On to P248L, for which the “effect of a mutation on the interaction” value is “with no effect”.

Regarding A9D, the “effect of a mutation on the interaction” value is “disrupting interaction strength”.

The variants in the next assay derive from B2. As to conditions: with myog_human MYOG.
As for R472I, the “effect of a mutation on the interaction” value is reported as “with no effect”.

Turning to G244D, the “effect of a mutation on the interaction” value is “disrupting interaction strength”.

In a further assay the parent is B3. The note with it: with tri27_human TRIM27, P14373.
Take L107V: the “effect of a mutation on the interaction” value is “with no effect”.

In another assay the parent is B4. As to conditions: with cep76_human CEP76, Q8TAP6.
For L69P, the “effect of a mutation on the interaction” value was “disrupting interaction strength”. On the same count and under the same terms, with V36M the entry was “disrupting interaction strength”.

Regarding F94S, the “effect of a mutation on the interaction” value is “disrupting interaction strength”.

Another assay covers variants of B5. The note with it: with adip_human SSX2IP.
With L107V, the “effect of a mutation on the interaction” value is “with no effect”.

A further assay covers variants of B6. As to conditions: with actn2_human ACTN2, P35609.
Sequence of actn2_human ACTN2, P35609 (P35609 whole entry): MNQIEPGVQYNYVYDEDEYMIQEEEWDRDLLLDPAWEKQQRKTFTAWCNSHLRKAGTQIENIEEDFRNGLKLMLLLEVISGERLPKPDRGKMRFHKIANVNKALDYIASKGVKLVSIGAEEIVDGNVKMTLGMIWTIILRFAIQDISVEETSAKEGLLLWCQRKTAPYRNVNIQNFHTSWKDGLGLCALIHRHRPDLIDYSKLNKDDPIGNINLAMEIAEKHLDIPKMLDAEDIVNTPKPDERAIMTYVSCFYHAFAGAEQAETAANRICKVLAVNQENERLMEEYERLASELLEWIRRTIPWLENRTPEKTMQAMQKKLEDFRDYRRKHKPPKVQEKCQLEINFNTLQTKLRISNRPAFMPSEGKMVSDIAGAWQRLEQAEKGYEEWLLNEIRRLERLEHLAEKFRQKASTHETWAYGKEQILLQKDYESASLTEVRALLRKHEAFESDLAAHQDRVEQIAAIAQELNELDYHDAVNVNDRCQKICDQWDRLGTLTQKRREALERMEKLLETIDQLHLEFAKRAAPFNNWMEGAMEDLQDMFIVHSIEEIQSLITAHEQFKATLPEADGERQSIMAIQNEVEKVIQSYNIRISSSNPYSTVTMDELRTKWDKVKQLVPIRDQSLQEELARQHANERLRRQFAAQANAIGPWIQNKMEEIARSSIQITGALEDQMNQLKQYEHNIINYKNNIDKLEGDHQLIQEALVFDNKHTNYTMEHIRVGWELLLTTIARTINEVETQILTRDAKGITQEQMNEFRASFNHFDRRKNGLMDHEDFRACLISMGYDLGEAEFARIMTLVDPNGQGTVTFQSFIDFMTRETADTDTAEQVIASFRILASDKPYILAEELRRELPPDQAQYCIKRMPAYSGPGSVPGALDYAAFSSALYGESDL
Regarding Q10P, the “effect of a mutation on the interaction” value was “with no effect”.

Another assay covers variants of B6. The note with it: with actn1_human ACTN1, P12814.
Sequence of actn1_human ACTN1, P12814 (P12814 whole entry): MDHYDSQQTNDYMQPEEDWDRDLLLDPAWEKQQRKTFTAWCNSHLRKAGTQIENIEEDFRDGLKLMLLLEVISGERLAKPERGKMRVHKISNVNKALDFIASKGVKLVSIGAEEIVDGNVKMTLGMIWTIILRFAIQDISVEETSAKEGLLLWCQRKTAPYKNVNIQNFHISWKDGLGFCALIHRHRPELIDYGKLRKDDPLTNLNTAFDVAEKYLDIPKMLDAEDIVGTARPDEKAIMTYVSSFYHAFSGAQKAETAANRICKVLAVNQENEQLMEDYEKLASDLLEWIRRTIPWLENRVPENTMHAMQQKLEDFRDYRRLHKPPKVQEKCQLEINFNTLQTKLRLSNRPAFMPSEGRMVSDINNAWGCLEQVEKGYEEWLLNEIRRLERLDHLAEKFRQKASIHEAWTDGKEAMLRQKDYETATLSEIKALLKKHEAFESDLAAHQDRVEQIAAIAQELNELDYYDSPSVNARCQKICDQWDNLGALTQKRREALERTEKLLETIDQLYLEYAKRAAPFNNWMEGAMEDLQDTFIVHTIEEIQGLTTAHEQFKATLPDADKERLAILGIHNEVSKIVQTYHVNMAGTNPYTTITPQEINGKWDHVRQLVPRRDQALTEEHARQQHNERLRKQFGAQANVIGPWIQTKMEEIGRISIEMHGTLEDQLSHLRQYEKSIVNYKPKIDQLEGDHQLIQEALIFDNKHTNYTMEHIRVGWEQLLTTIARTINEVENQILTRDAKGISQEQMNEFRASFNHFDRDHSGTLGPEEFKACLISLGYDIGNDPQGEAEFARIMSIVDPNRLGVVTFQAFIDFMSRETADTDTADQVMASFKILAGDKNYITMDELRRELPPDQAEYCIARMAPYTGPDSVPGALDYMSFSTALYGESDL
As for Q10P, the “effect of a mutation on the interaction” value is recorded as “with no effect”.

Variants of B6 are the subject of a further assay. As to conditions: with actn4_human ACTN4, O43707.
Sequence of actn4_human ACTN4, O43707 (O43707 whole entry): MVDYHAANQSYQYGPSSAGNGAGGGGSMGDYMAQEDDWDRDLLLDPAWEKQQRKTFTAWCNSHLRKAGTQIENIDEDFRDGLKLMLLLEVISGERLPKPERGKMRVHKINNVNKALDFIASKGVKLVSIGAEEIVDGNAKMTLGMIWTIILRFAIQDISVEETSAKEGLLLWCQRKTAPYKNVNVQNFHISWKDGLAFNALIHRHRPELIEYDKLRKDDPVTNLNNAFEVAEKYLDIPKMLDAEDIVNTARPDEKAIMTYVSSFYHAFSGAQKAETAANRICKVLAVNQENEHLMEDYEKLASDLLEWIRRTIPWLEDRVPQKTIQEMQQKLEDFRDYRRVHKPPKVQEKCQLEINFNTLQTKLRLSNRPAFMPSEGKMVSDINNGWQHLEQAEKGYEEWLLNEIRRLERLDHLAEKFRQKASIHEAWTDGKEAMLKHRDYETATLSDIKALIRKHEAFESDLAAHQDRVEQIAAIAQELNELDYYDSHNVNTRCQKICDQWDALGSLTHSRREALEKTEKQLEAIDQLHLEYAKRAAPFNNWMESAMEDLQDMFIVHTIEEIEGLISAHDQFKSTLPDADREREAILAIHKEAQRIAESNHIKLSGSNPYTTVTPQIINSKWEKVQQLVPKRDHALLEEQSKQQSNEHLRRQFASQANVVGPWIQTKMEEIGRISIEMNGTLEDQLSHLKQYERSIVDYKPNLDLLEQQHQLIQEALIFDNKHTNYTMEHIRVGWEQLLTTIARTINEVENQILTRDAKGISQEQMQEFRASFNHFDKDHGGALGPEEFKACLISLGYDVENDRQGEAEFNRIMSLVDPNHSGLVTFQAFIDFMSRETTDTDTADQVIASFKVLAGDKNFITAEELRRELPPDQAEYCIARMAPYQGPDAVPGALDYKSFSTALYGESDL
For Q10P, the “effect of a mutation on the interaction” value was “with no effect”.
